Two molecules from article PMC10638403, “A closed translocation channel in the substrate-free AAA+ ClpXP protease diminishes rogue degradation” (Nature Communications, 2023) can be followed below.

First the molecules themselves.
B1: full-length E. coli ClpX (enzyme)
chain: not shown
notes: ClpX, E. coli, full length, with a neutral K408E mutation; The methods tell two purifications for full-length ClpX (Ni-NTA, gel filtration and ion exchange; or ammonium sulfate, phenyl-Sepharose and mono-Q), so the His6 tag on this form is not certain; The N-terminal domains were not visible in the map; models typically hold residues 65-413; also called wild-type ClpX; ClpX6; source: E. coli …
B2: E. coli ClpP (enzyme)
chain: not shown
notes: ClpP peptidase, E. coli; models hold residues 2-193 of each subunit; also called ClpP14; double-ring ClpP tetradecamer; source: E. coli HMS174(DE3), pT7 plasmid, purified (Ni-NTA, size-exclusion chromatography); copies: 14

Series [1] concerns the molecule itself. The series is described as follows: cryo-EM structure; ClpX6 (5.8 µM), ClpP14 (1.9 µM), λO-Arc (20 µM dimer), ATPγS (2.5 mM) in 25 mM HEPES (pH 7.5), 100 mM KCl, 25 mM MgCl2; ClpX and ClpP incubated with ATPγS for 5 min at room temperature before λO-Arc was added; the substrate-free class was refined.
Series [2] concerns the molecule itself. The series is described as follows: cryo-EM structure; single-chain ClpX^∆N (3 µM pseudohexamer) and ClpP (1.5 µM tetradecamer) in 20 mM HEPES (pH 7.5), 100 mM KCl, 25 mM MgCl2, incubated with ATP (5 mM) for 15 min at room temperature; doubly capped and singly capped particles.
Series [3] concerns the target B1. The series is described as follows: cryo-EM structure; ClpX6 (5.8 µM), ClpP14 (1.9 µM), λO-Arc (20 µM dimer), ATPγS (2.5 mM) in 25 mM HEPES (pH 7.5), 100 mM KCl, 25 mM MgCl2; ClpX and ClpP incubated with ATPγS for 5 min at room temperature before λO-Arc was added; the substrate-free class was refined. To be noted: both partners purified.

Broadly, the stoichiometry N is a count of units in the complex or per binding partner. Consider B1, for which, in series [1], the “stoichiometry N” value came to 6 subunits.

Turning to B2, the “stoichiometry N” value in series [2] was determined as 14 subunits. In addition, in series [3], the binding result is reported as “binds”.
